Like-named read-outs stand apart in the source and are kept apart here.
T1: recombinant mouse MAdCAM-1 (mouse, UniProt Q61826 22-365, limits assumed)
T1 construct: also called mMAdCAM-1; mouse MAdCAM-Fc
T1 sequence (looked up): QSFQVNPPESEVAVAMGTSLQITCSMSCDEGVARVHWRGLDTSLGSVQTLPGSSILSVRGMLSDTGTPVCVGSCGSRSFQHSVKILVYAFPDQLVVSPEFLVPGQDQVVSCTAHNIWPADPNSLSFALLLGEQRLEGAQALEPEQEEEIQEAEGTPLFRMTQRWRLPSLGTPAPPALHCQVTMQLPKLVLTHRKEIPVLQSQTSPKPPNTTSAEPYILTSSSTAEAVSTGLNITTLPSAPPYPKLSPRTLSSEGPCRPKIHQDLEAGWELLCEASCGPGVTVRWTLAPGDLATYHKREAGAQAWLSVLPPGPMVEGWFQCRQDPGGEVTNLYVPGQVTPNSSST

T2: human MAdCAM expressed on cells (human, UniProt Q13477 19-382)
T2 construct: whole, on cells; also called MADCAM1
T2 sequence (looked up): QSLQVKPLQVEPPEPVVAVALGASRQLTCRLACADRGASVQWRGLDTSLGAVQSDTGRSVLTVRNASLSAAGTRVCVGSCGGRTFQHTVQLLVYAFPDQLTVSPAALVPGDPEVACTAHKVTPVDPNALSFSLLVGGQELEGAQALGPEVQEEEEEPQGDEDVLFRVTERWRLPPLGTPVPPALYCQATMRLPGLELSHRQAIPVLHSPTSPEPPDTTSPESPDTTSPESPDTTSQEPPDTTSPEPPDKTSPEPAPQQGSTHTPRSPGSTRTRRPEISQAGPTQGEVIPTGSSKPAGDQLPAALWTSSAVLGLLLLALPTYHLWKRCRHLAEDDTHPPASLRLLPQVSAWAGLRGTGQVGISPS

T3: mouse MAdCAM expressed on cells (mouse, UniProt Q61826 22-405)
T3 construct: whole, on cells
T3 sequence (looked up): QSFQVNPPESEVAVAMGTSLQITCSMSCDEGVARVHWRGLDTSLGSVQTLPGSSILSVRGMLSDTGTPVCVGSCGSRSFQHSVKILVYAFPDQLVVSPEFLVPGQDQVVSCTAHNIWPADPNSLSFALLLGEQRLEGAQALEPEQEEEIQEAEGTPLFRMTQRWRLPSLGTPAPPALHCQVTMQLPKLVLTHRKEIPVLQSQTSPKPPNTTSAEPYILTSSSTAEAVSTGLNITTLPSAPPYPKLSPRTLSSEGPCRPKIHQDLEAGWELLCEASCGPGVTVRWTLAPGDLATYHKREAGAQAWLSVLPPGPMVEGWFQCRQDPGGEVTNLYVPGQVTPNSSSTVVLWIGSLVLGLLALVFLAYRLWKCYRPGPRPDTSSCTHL


Tests used:
[1] = target: T1, recombinant mouse MAdCAM-1; experiment: Octet
[2] = target: T2, human MAdCAM expressed on cells; experiment: cell binding
[3] = target: T3, mouse MAdCAM expressed on cells; experiment: cell binding
[4] = target: T2, human MAdCAM expressed on cells; experiment: cell binding; remark: listed apart in the source
[5] = target: T3, mouse MAdCAM expressed on cells; experiment: cell binding; remark: listed apart in the source

Row | Binder | binding result [1] | binding result [2] | binding result [3] | binding result [4] | binding result [5]
1 | MAdCAM Antibody Table 2 Clone 6 (antibody, human IgG1, V domains shown) VH: EVQLLESGGGLVQPGGSLRLSCAASGFTFNNYAFHWVRQAPGKGLEWVSRINSYGTSTTYADSVKGRFTISRDNSKNTLYLQMNSLRAEDTAVYYCAREGPVAGYWYFDLWGQGTLVTVSS VL: DIQMTQSPSSLSASVGDRVTITCRASQIIGTNLAWYQQKPGKAPKLLIYGASSLQSGVPSRFSGSGSGTDFTLTISSLQPEDFATYYCQQSYRLPFTFGQGTKVEIK | no binding | binds | no binding | – | –
2 | MAdCAM Antibody Table 2 Clone 17 (antibody, human IgG1, V domains shown) VH: QVQLVQSGAEVKKPGSSVKVSCKASGYTFTDYHIHWVRQAPGQGLEWMGGIVPRSGSTTYAQKFQGRVTITADESTSTAYMELSSLRSEDTAVYYCAKDESSGWYYFDYWGQGTLVTVSS VL: DIVMTQSPLSLPVTPGEPASISCRSSQSLLHSNGYNYLDWYLQKPGQSPQLLIYSAYNRASGVPDRFSGSGSGTDFTLKISRVEAEDVGVYYCMQALQTPLTFGQGTKVEIK | no binding | binds | no binding | – | –
3 | MAdCAM Antibody Table 1 Clone 64 (scFv) scFv: EVQLLESGGGLVKPGGSLRLSCAASGFAFSSHWMHWVRQAPGKGLEWVAGTSGSGESRDYADFVKGRFTISRDDSKNTLYLQMNSLKTEDTAVYYCARETYYYYYMDVWGKGTTVTVSSGGGGSGGGGSGGGGSGGGGSDIQMTQSPSSLSASVGDRVTITCRASQGISNYLAWYQQKPGKAPKLLIYDAANLEGGVPSRFSGSGSGTDFTLTISSLQPEDFATYYCQQSDIFPPTFGQGTKVEIK | – | – | – | binds | binds
4 | MAdCAM Antibody Table 1 Clone 2 (scFv) scFv: QVQLVQSGAEVKKPGASVKVSCKASGYPFIGYYLHWVRQAPGQGLEWMGIINPSGGSTSYAQKFQGRVTMTRDTSTSTVYMELSSLRSEDTAVYYCAREGRLSYGMDAWGQGTLVTVSSGGGGSGGGGSGGGGSGGGGSDIQMTQSPSSLSASVGDRVTITCRASQSISSYLAWYQQKPGKAPKLLIYGASTLESGVPSRFSGSGSGTDFTLTISSLQPEDFATYYCQQTWGPPFTFGQGTKLEIK | – | – | – | binds | binds
5 | MAdCAM Antibody Table 1 Clone 3 (scFv) scFv: QVQLVQSGAEVKKPGASVKVSCKASGYPFIGQYLHWVRQAPGQGLEWMGIINPSGGSTSYAQKFQGRVTMTRDTSTSTVYMELSSLRSEDTAVYYCAREGRLSYGMDAWGQGTLVTVSSGGGGSGGGGSGGGGSGGGGSDIQMTQSPSSLSASVGDRVTITCRASQSISSYLAWYQQKPGKAPKLLIYGASTLESGVPSRFSGSGSGTDFTLTISSLQPEDFATYYCQQTWGPPFTFGQGTKLEIK | – | – | – | binds | binds
6 | MAdCAM Antibody Table 1 Clone 7 (scFv) scFv: QVQLVQSGAEVKKPGASVKVSCKASGYTFTGYHIHWVRQAPGQGLEWMGIINPSGGSTIYAQKFQGRVTMTRDTSTSTVYMELSSLRSEDTAVYYCAKDWSSWYLGPFDYWGQGTLVTVSSGGGGSGGGGSGGGGSGGGGSDIQMTQSPSSLSASVGDRVTITCRASQNISSSLNWYQQKPGKAPKLLIYAASSLQSGVPSRFSGSGSGTDFTLTISSLQPEDFATYYCQQSYTTPYTFGQGTKVEIK | – | – | – | binds | binds
7 | MAdCAM Antibody Table 1 Clone 4 (scFv) scFv: QVQLVQSGAEVKKPGASVKVSCKASGGTFSSYAISWVRQAPGQGLEWMGSINPSGDTTSYAQKFQGRVTMTRDTSTSTVYMELSSLRSEDTAVYYCAKDKAQWLVGYFDYWGQGTLVTVSSGGGGSGGGGSGGGGSGGGGSDIQMTQSPSSLSASVGDRVTITCQASQDISNSLNWYQQKPGKAPKLLIYAASSLQSGVPSRFSGSGSGTDFTLTISSLQPEDFATYYCQQSYSSVITFGQGTKVEIK | – | – | – | binds | binds
8 | MAdCAM Antibody Table 1 Clone 65 (scFv) scFv: QVQLVQSGAEVKKPGASVKVSCKASGYTFTRHWIHWVRQAPGQGLEWMGWINVKTGGAGYAQKFQGRVTMTRDTSTSTVYMELSSLRSEDTAVYYCARESSGWYGTDVWGQGTTVTVSSGGGGSGGGGSGGGGSGGGGSDIQMTQSPSSLSASVGDRATITCRASQSISNYLAWYQQKPGKAPKLLIYAASSLQSGVPSRFSGSGSGTDFTLTISSLQPEDFATYYCQQSNSFPLTFGGGTKVEIK | – | – | – | binds | binds
9 | MAdCAM Antibody Table 2 Clone 14 (antibody, human IgG1, V domains shown) VH: QVQLVQSGAEVKKPGSSVKVSCKASGYTFTNYYMHWVRQAPGQGLEWMGGIIPIVDGVKYAQKFQGRVTITADESTSTAYMELSSLRSEDTAVYYCAKGQFTGNYYYGMDYWGQGTLVTVSS VL: DIQMTQSPSSLSASVGDRVTITCQANQDISNYLNWYQQKPGKAPKLLIYRASKLEAGVPSRFSGSGSGTDFTLTISSLQPEDFATYYCQQSSEIPYSFGQGTKVEIK | no binding | – | no binding | – | –
10 | MAdCAM Antibody Table 2 Clone 22 (antibody, human IgG1, V domains shown) VH: EVQLLESGGGLVQPGGSLRLSCAASGFTFDDYAMHWVRQAPGKGLEWVSGISWNSGSIGYADSVKGRFTISRDNSKNTLYLQMNSLRAEDTAVYYCAKDIVAAGHYYYGMDVWGQGTTVTVSS VL: DIQMTQSPSSLSASVGDRVTITCQASQDISNYLNWYQQKPGKAPKLLIYDASNLETGVPSRFSGSGSGTDFTLTISSLQPEDFATYYCQQSYSTPLTFGGGTKVEIK | no binding | binds | no binding | – | –
11 | MAdCAM Antibody Table 2 Clone 28 (antibody, human IgG1, V domains shown) VH: EVQLLESGGGLVQPGGSLRLSCAASGFTFSSYAMSWVRQAPGKGLEWVSYISSSSTYTNYADSVKGRFTISRDNSKNTLYLQMNSLRAEDTAVYYCARANSSSWYDWYFDLWGQGTLVTVSS VL: not shown | no binding | – | no binding | – | –
12 | MAdCAM Antibody Table 1 Clone 11 (scFv) scFv: QVQLVQSGAEVKKPGASVKVSCKASGYTFTTYYMHWVRQAPGQGLEWMGGFDPEDGETIYAQKFQGRVTMTRDTSTSTVYMELSSLRSEDTAVYYCARHAVAGAVGAGYYYYGMDVWGQGTMVTVSSGGGGSGGGGSGGGGSGGGGSDIQMTQSPSSLSASVGDRVTITCRASESISNWLAWYQQKPGKAPKLLIYAASTLQSGVPSRFSGSGSGTDFTLTISSLQPEDFATYYCQQSYSVPFTFGPGTKVDIK | – | – | – | binds | no binding
13 | MAdCAM Antibody Table 1 Clone 66 (scFv) scFv: EVQLLESGGGLVQPGGSLRLSCAASGFTFSSYWMHWVRQAPGKGLEWVAAISYDGKYKDYEDSVKGRFTISRDNSKNTLYLQMNSLRAEDTAVYYCARENKQWLASFDYWGQGTLVTVSSGGGGSGGGGSGGGGSGGGGSDIQMTQSPSSLSASVGDRVTITCQASQDISNFVNWYQQKPGKAPKLLIYAANLRSGVPSRFSGSGSGTDFTLTISSLQPEDFATYYCQQANSFPVTFGPGTKVDIK | – | – | – | binds | binds
14 | MAdCAM Antibody Table 2 Clone 20 (antibody, human IgG1, V domains shown) VH: EVQLLESGGGLVQPGGSLRLSCAASGFTFSDSAMHWVRQAPGKGLEWVSAISGSGSTIYYADSVKGRFTISRDNSKNTLYLQMNSLRAEDTAVYYCVSDIAVAGHWYFDLWGRGTLVTVSS VL: DIQMTQSPSSLSASVGDRVTITCRASQSISTFLNWYQQKPGKAPKLLIYAASRLEGGVPSRFSGSGSGTDFTLTISSLQPEDFATYYCQQANSFPLTFGPGTKVDIK | no binding | binds | no binding | – | –
15 | MAdCAM Antibody Table 1 Clone 5 (scFv) scFv: EVQLLESGGGLVQPGGSLRLSCAASGFTFSSYWMHWVRQAPGKGLEWVSSISPGGSNIDYADSVKGRFTISRDNSKNTLYLQMNSLRAEDTAVYYCAREVQLSHYDYWGQGTLVTVSSGGGGSGGGGSGGGGSGGGGSDIQMTQSPSSLSASVGDRVTITCRASQGISNSLAWYQQKPGKAPKLLIYGASSLQSGVPSRFSGSGSGTDFTLTISSLQPEDFATYYCQQANSFPFTFGQGTKVEIK | – | – | – | binds | binds

From patent US20210206856A1 (PANDION OPERATIONS, published 2021)
